Reference: patent US20160237160A1, “ANTI-TWEAKR ANTIBODIES AND USES THEREOF” (BAYER PHARMA AKTIENGESELLSCHAFT, priority 2013, published 2016)
Where a chain is given by its changes, count along the chain named.

B1: 18.3.3(TPP-2193): reference anti-TWEAKR antibody, murine IgG2a, from WO2009/020933; SEQ ID NO 129/130 (protein)
light: DIVLTQSPASLAVSLGQRATISCKASQSVSTSTYSYMQWYQQRPGQSPKLLIKYASKLDSGVPARFSGSGSGTDFTLNIHPVEEEDTATYYCQHSWELPYTFGGGTRLEIKRADAAPTVSIFPPSSEQLTSGGASVVCFLNNFYPKDINVKWKIDGSERQNGVLNSWTDQDSKDSTYSMSSTLTLTKDEYERHNSYTCEATHKTSTSPIVKSFNRNEC
heavy: EVKLGESGGGLVQPGGSMKLSCVASGFPFTKYWMNWVRQSPEKGLEWVAEIRLKSDNYATHYAESAKGRFTISRDDSRSSVYLQMNNLRAEDTAIYYCSPTYADTMDYWGQGTSVTVSSAKTTAPSVYPLAPVCGDTTGSSVTLGCLVKGYFPEPVTLTWNSGSLSSGVHTFPAVLQSDLYTLSSSVTVTSSTWPSQSITCNVAHPASSTKVDKKIEPRGPTIKPCPPCKCPAPNLLGGPSVFIFPPKIKDVLMISLSPIVTCVVVDVSEDDPDVQISWFVNNVEVHTAQTQTHREDYNSTLRVVSALPIQHQDWMSGKEFKCKVNNKDLPAPIERTISKPKGSVRAPQVYVLPPPEEEMTKKQVTLTCMVTDFMPEDIYVEWTNNGKTELNYKNTEPVLDSDGSYFMYSKLRVEKKNWVERNSYSCSVVHEGLHNHHTTKSFSRTPG
modifications: Mus Musculus
B2: 136.1(TPP-2194): reference anti-TWEAKR antibody, murine IgG2a, from WO2009/020933; SEQ ID NO 123/124 (protein)
light: B1 light with A12T, K24R, T33S, S47P, S56T, K57N, T87A, L98I, R107K
heavy: EVKLEESGGGLVQPGGSMKLSCVASGFTFNNYWMSWVRQSPEKGLEWLAEIRLKSDNYATHYAESVKGKFTISRDDSKSRLYLQMNNLRAENTGIYYCTGGFADYFDYWGQGTTLTVSSAKTTAPSVYPLAPVCGDTTGSSVTLGCLVKGYFPEPVTLTWNSGSLSSGVHTFPAVLQSDLYTLSSSVTVTSSTWPSQSITCNVAHPASSTKVDKKIEPRGPTIKPCPPCKCPAPNLLGGPSVFIFPPKIKDVLMISLSPIVTCVVVDVSEDDPDVQISWFVNNVEVHTAQTQTHREDYNSTLRVVSALPIQHQDWMSGKEFKCKVNNKDLPAPIERTISKPKGSVRAPQVYVLPPPEEEMTKKQVTLTCMVTDFMPEDIYVEWTNNGKTELNYKNTEPVLDSDGSYFMYSKLRVEKKNWVERNSYSCSVVHEGLHNHHTTKSFSRTPG
modifications: Mus Musculus
B3: P2D3(TPP-2196): reference anti-TWEAKR antibody, murine IgG2a, from WO2009/140177; SEQ ID NO 131/132 (protein)
light: DIVLTQSPASLAVSLGQRATISCRASKSVSTSSYSYMHWYQQKPGQPPKLLIKYTSNLESGVPARFSGSGSGTDFILNIHPVEEEDAATYYCQHSRELPWTFGGGTKLEIKRADAAPTVSIFPPSSEQLTSGGASVVCFLNNFYPKDINVKWKIDGSERQNGVLNSWTDQDSKDSTYSMSSTLTLTKDEYERHNSYTCEATHKTSTSPIVKSFNRNEC
heavy: QVSLKESGPGILQPSQTLSLTCSFSGFSLSTSGMGVSWIRQPSGKGLEWLAHIYWDDDKRYNPSLKSRLTISKDTSRNQVFLKITSVDTADTATYYCARRGPDYYGYYPMDYWGQGTSVTVSAKTTAPSVYPLAPVCGDTTGSSVTLGCLVKGYFPEPVTLTWNSGSLSSGVHTFPAVLQSDLYTLSSSVTVTSSTWPSQSITCNVAHPASSTKVDKKIEPRGPTIKPCPPCKCPAPNLLGGPSVFIFPPKIKDVLMISLSPIVTCVVVDVSEDDPDVQISWFVNNVEVHTAQTQTHREDYNSTLRVVSALPIQHQDWMSGKEFKCKVNNKDLPAPIERTISKPKGSVRAPQVYVLPPPEEEMTKKQVTLTCMVTDFMPEDIYVEWTNNGKTELNYKNTEPVLDSDGSYFMYSKLRVEKKNWVERNSYSCSVVHEGLHNHHTTKSFSRTPG
modifications: Mus Musculus

Experiments:
TWEAKR = TWEAKR (Homo sapiens, UniProt Q9NP84); conditions: published data; read-out: KD / binding affinity to TWEAKR (published); cited from earlier work
[1] = target: T1, TWEAKR-Fc mutein T33Q (TPP-1986) (Homo sapiens, UniProt Q9NP84, T33Q); experiment: ELISA mutein binding; conditions: coating 62 ng/ml; biotinylated IgG from 100 nM; read-out: IC50 of antibody binding, T33Q
T1 construct: the full ectodomain (amino acids 28-80) with the following single amino acid substitutions; made in house
Method: (§1) Therefore, the full ectodomain (amino acids 28-80) with the following single amino acid substitutions were expressed and purified as Fc fusion proteins: T33Q; S40R; W42A; M50A; R56P; H60K; L65Q.
(§2) To collect dose-response data, the different TWEAKR-Fc muteins were coated with a low concentration (62 ng/ml) in a 384-well Maxisorb ELISA plate and a serial 2fold dilution of biotinylated IgG starting with a concentration of 100 nM was used as soluble binding partner. Detection was done with Streptavidin-HRP and Amplex Red.
(§3) IgGs were biotinylated using an approximately 2-fold molar excess of biotin-LC-NHS (Pierce; Cat. No. 21347) according to manufacturer's instructions and desalted using Zeba desalting columns (Pierce; Cat. No. 89889). The dose-response data were fitted and IC50s determined.

TWEAKR-Fc WT (TPP-599) = target: T2, TWEAKR-Fc WT (TPP-599) (Homo sapiens, UniProt Q9NP84); experiment: ELISA mutein binding; conditions: coating 62 ng/ml; biotinylated IgG from 100 nM; read-out: IC50 of antibody binding, WT
T2 construct: TPP-599; HUMAN-TNFRSF12Aaa28-80-hIgG1-Fc; 138; made in house
Method: as §1, §2, §3

[2] = target: T3, TWEAKR-Fc mutein L65Q (TPP-1990) (Homo sapiens, UniProt Q9NP84, L65Q); experiment: ELISA mutein binding; conditions: coating 62 ng/ml; biotinylated IgG from 100 nM; read-out: IC50 of antibody binding, L65Q
T3 construct: the full ectodomain (amino acids 28-80) with the following single amino acid substitutions; made in house
Method: as §1, §2, §3

[3] = target: T4, TWEAKR-Fc mutein S40R (TPP-1987) (Homo sapiens, UniProt Q9NP84, S40R); experiment: ELISA mutein binding; conditions: coating 62 ng/ml; biotinylated IgG from 100 nM; read-out: IC50 of antibody binding, S40R
T4 construct: the full ectodomain (amino acids 28-80) with the following single amino acid substitutions; made in house
Method: as §1, §2, §3

[4] = target: T5, TWEAKR-Fc mutein H60K (TPP-1989) (Homo sapiens, UniProt Q9NP84, H60K); experiment: ELISA mutein binding; conditions: coating 62 ng/ml; biotinylated IgG from 100 nM; read-out: IC50 of antibody binding, H60K
T5 construct: the full ectodomain (amino acids 28-80) with the following single amino acid substitutions; made in house
Method: as §1, §2, §3

[5] = target: T6, TWEAKR-Fc mutein R56P (TPP-2683) (Homo sapiens, UniProt Q9NP84, R56P); experiment: ELISA mutein binding; conditions: coating 62 ng/ml; biotinylated IgG from 100 nM; read-out: IC50 of antibody binding, R56P
T6 construct: the full ectodomain (amino acids 28-80) with the following single amino acid substitutions; made in house
Method: as §1, §2, §3

[6] = target: T7, TWEAKR-Fc mutein W42A (TPP-1985) (Homo sapiens, UniProt Q9NP84, W42A); experiment: ELISA mutein binding; conditions: coating 62 ng/ml; biotinylated IgG from 100 nM; read-out: IC50 of antibody binding, W42A
T7 construct: the full ectodomain (amino acids 28-80) with the following single amino acid substitutions; made in house
Method: as §1, §2, §3

[7] = target: T8, TWEAKR-Fc mutein M50A (TPP-1988) (Homo sapiens, UniProt Q9NP84, M50A); experiment: ELISA mutein binding; conditions: coating 62 ng/ml; biotinylated IgG from 100 nM; read-out: IC50 of antibody binding, M50A
T8 construct: the full ectodomain (amino acids 28-80) with the following single amino acid substitutions; made in house
Method: as §1, §2, §3

[8] = target: T9, TWEAKR protein (TPP-2305) (Homo sapiens, UniProt Q9NP84); experiment: Biacore monovalent KD with TWEAKR protein; assay type: binding; conditions: for ka / kd: first order 1:1 binding model
T9 construct: TPP-2305; hTNFRSF12Aaa28-80; Human; 30R-AT080; 168; purchased Fitzgerald Inc 30R-AT080
Method: Binding affinities of anti-TWEAKR antibodies were determined by surface plasmon resonance analysis on a Biacore T100 instrument (GE Healthcare Biacore, Inc.). Antibodies were immobilized onto a CM5 sensor chip through an indirect capturing reagent, anti-human IgG(Fc). Reagents from the “Human Antibody Capture Kit” (BR-1008-39, GE Healthcare Biacore, Inc.) were used as described by the manufacturer. Anti-TWEAKR antibodies were injected at a concentration of 10 μg/ml at 10 μl/min for 10 sec.
Sensorgrams were generated after in-line reference cell correction followed by buffer sample subtraction. The dissociation equilibrium constant (KD) was calculated based on the ratio of association (kon) and dissociation rated (koff) constants, obtained by fitting sensorgrams with a first order 1:1 binding model.

| Molecule | Kd (TWEAKR) | IC50 [1] | IC50 (TWEAKR-Fc WT (TPP-599)) | IC50 [2] | IC50 [3] | IC50 [4] | IC50 [5] | IC50 [6] | IC50 [7] | ka [8] | kd [8] | Kd ([8]; monovalent KD) |
| --- | --- | --- | --- | --- | --- | --- | --- | --- | --- | --- | --- | --- |
| B1 | 0.2 nM | 0.001 to 0.15 nM | 0.001 to 0.15 nM | 0.001 to 0.15 nM | 0.001 to 0.15 nM | 0.001 to 0.15 nM | > 50 nM | > 50 nM | 0.001 to 0.15 nM | 1.64e+07 M⁻¹ s⁻¹ | 0.0285 s⁻¹ |  |
| B2 | 0.7 nM | 0.001 to 0.15 nM | 0.001 to 0.15 nM | 0.001 to 0.15 nM | 0.001 to 0.15 nM | 0.001 to 0.15 nM | > 50 nM | > 50 nM | 0.001 to 0.15 nM | 3.84e+07 M⁻¹ s⁻¹ | 0.0324 s⁻¹ |  |
| B3 |  |  |  |  |  |  |  |  |  | 1.32e+06 M⁻¹ s⁻¹ | 0.000564 s⁻¹ | 0.4 nM |
